Patent publication US20260167698A1 (ONO PHARMACEUTICAL, published 2026)

T1: human Allergin-1L (expressed on CHO cells) (human, UniProt Q7Z6M3 20-343)
T1 construct: also called MILR1; human Allergin-1L-expressing CHO cell lines
T1 sequence: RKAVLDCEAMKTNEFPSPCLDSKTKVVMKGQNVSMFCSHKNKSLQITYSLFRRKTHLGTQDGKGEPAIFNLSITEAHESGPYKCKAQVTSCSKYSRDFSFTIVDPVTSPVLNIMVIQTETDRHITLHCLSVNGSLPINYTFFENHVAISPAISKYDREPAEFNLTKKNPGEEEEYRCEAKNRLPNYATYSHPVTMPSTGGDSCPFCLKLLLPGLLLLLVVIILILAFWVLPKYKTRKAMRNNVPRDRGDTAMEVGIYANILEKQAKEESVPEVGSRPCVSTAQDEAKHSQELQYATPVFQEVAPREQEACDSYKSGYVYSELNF


target: T1, human Allergin-1L (expressed on CHO …); experiment: flow cytometry, binding to Allergin-1L

Binder | EC50
anti-Allergin-1 bispecific antibody #15_h_optv2 clone (bispecific antibody, human IgG1, kappa, L234A L235A, N297A, Morrison form: Fab Pro1571, scFv Pro2281) heavy: EVQLVESGGGLVQPGGSLRLSCAASGFSLSSHAMSWVRQAPGKGLEWIGTISTIDTTYYASWAKGRFTISRDNSKNTVYLQMNSLRAEDTAVYYCARLSELYTTNSYYSRWGQGTLVTVSSASTKGPSVFPLAPSSKSTSGGTAALGCLVKDYFPEPVTVSWNSGALTSGVHTFPAVLQSSGLYSLSSVVTVPSSSLGTQTYICNVNHKPSNTKVDKRVEPKSCDKTHTCPPCPAPEAAGGPSVFLFPPKPKDTLMISRTPEVTCVVVDVSHEDPEVKFNWYVDGVEVHNAKTKPREEQYASTYRVVSVLTVLHQDWLNGKEYKCKVSNKALPAPIEKTISKAKGQPREPQVYTLPPSREEMTKNQVSLTCLVKGFYPSDIAVEWESNGQPENNYKTTPPVLDSDGSFFLYSKLTVDKSRWQQGNVFSCSVMHEALHNHYTQKSLSLSPGGGGGSGGGGSAIQMTQSPSSLSARVGDRVTITCQSSESVYDNNYLSWYQQKPGKAPKLLIYDASRLASGVPSRFSGSGSGTQFTLTISSLQPEDFATYYCLGGYDSSGWYAAFGTGTKVTVLGGGGGSGGGGSGGGGSGGGGSEVQLVESGGGLVQPGGSLRLSCAASGFSLTIYTITWVRQAPGKGLEWIGTINSYGNTYYSTWAKGRFTISRDNSKNTVYLQMNSLRAEDTAVYYCARGYVDSDWYLNIWGQGTLVTVSS light: DIQMTQSPSSLSASVGDRVTITCQASESIGSLLAWYQQKPGKAPKLLIYRASTLESGVPSRFSGSGSGTDFTLTISSLQPEDFATYYCQSYHYSSSSSYAAFGQGTKVEIKRTVAAPSVFIFPPSDEQLKSGTASVVCLLNNFYPREAKVQWKVDNALQSGNSQESVTEQDSKDSTYSLSSTLTLSKADYEKHKVYACEVTHQGLSSPVTKSFNRGEC | 2.41 nM
anti-Allergin-1 bispecific antibody #15_h clone (bispecific antibody, human IgG1, kappa, L234A L235A, N297A, Morrison form antibody: Fab from Pro1571 (S2-D), scFv from Pro1588 (S1-A) on the heavy chain C-terminus) heavy: EVQLVESGGGLVQPGGSLRLSCAASGFSLSSHAMSWVRQAPGKGLEWIGTISTIDTTYYASWAKGRFTISRDNSKNTVYLQMNSLRAEDTAVYYCARLSELYTTNSYYSRWGQGTLVTVSSASTKGPSVFPLAPSSKSTSGGTAALGCLVKDYFPEPVTVSWNSGALTSGVHTFPAVLQSSGLYSLSSVVTVPSSSLGTQTYICNVNHKPSNTKVDKRVEPKSCDKTHTCPPCPAPEAAGGPSVFLFPPKPKDTLMISRTPEVTCVVVDVSHEDPEVKFNWYVDGVEVHNAKTKPREEQYASTYRVVSVLTVLHQDWLNGKEYKCKVSNKALPAPIEKTISKAKGQPREPQVYTLPPSREEMTKNQVSLTCLVKGFYPSDIAVEWESNGQPENNYKTTPPVLDSDGSFFLYSKLTVDKSRWQQGNVFSCSVMHEALHNHYTQKSLSLSPGGGGGSGGGGSDIQMTQSPSSLSASVGDRVTITCQSSESVYDNNYLSWYQQKPGKAPKLLIYDASRLASGVPSRFSGSGSGTDFTLTISSLQPEDFATYYCLGGYDSSGWYAAFGTGTKVTVLGGGGGSGGGGSGGGGSGGGGSEVQLVESGGGLVQPGGSLRLSCAASGFSLTIYTITWVRQAPGKGLEWIGTINSYGNTYYSTWAKGRFTISRDNSKNTVYLQMNSLRAEDTAVYYCARGYVDSDWYLNIWGQGTLVTVSS light: DIQMTQSPSSLSASVGDRVTITCQASESIGSLLAWYQQKPGKAPKLLIYRASTLESGVPSRFSGSGSGTDFTLTISSLQPEDFATYYCQSYHYSSSSSYAAFGQGTKVEIKRTVAAPSVFIFPPSDEQLKSGTASVVCLLNNFYPREAKVQWKVDNALQSGNSQESVTEQDSKDSTYSLSSTLTLSKADYEKHKVYACEVTHQGLSSPVTKSFNRGEC | 2.37 nM
anti-Allergin-1 bispecific antibody #15_h_opt clone (bispecific antibody, human IgG1, kappa, L234A L235A, N297A, Morrison form: Fab Pro1571, scFv Pro2282) heavy: EVQLVESGGGLVQPGGSLRLSCAASGFSLSSHAMSWVRQAPGKGLEWIGTISTIDTTYYASWAKGRFTISRDNSKNTVYLQMNSLRAEDTAVYYCARLSELYTTNSYYSRWGQGTLVTVSSASTKGPSVFPLAPSSKSTSGGTAALGCLVKDYFPEPVTVSWNSGALTSGVHTFPAVLQSSGLYSLSSVVTVPSSSLGTQTYICNVNHKPSNTKVDKRVEPKSCDKTHTCPPCPAPEAAGGPSVFLFPPKPKDTLMISRTPEVTCVVVDVSHEDPEVKFNWYVDGVEVHNAKTKPREEQYASTYRVVSVLTVLHQDWLNGKEYKCKVSNKALPAPIEKTISKAKGQPREPQVYTLPPSREEMTKNQVSLTCLVKGFYPSDIAVEWESNGQPENNYKTTPPVLDSDGSFFLYSKLTVDKSRWQQGNVFSCSVMHEALHNHYTQKSLSLSPGGGGGSGGGGSAIQMTQSPSSLSARVGDRVTITCQSSESVYDNNYLSWYQQKPGKAPKLLIYDASRLASGVPSRFSGSGSGTQFTLTISSLQPEDFATYYCLGGYDSSGWYAAFGCGTKVTVLGGGGGSGGGGSGGGGSGGGGSEVQLVESGGGLVQPGGSLRLSCAASGFSLTIYTITWVRQAPGKCLEWIGTINSYGNTYYSTWAKGRFTISRDNSKNTVYLQMNSLRAEDTAVYYCARGYVDSDWYLNIWGQGTLVTVSS light: DIQMTQSPSSLSASVGDRVTITCQASESIGSLLAWYQQKPGKAPKLLIYRASTLESGVPSRFSGSGSGTDFTLTISSLQPEDFATYYCQSYHYSSSSSYAAFGQGTKVEIKRTVAAPSVFIFPPSDEQLKSGTASVVCLLNNFYPREAKVQWKVDNALQSGNSQESVTEQDSKDSTYSLSSTLTLSKADYEKHKVYACEVTHQGLSSPVTKSFNRGEC | 2.58 nM

target: T1, human Allergin-1L (expressed on CHO …); experiment: selected on binding by CELISA and SPR (Example 5)
Procedure: The purified humanized scFv was analyzed for binding to CHO cells stably expressing human Allergin-1L and monkey Allergin-1, by CELISA, respectively. In detail, the CHO cells were seeded in 96-well plates, to which diluted humanized scFv was added, and which were incubated at 37° C. After washing the CHO cells, to which diluted HRP-labeled Protein L was added, and which were incubated again at 37° C. After washing the CHO cells again, to which HRP chromogenic substrate was added, and which were incubated at room temperature, and then in which absorbance was measured. As a result, the bindings to human Allergin-1L and monkey Allergin-1 were confirmed in several clones.
Furthermore, for each humanized scFv, the binding to Fc-fused human Allergin-1L recombinant protein was analyzed by SPR method. In detail, Fc-fused human Allergin-1L recombinant protein was immobilized on a sensor chip, followed by flowing humanized scFv as an analyte into a flow cell. As a result, the bindings to human Allergin-1L were confirmed in several clones.

Binder | binding result
humanized scFv Pro1742 (scFv, V domains shown, A single-chain Fv) VH: EVQLVESGGGLVQPGGSLRLSCAASGFSLNNYFMIWVRQAPGKCLEWIGIITSYHTTYFANWAKGRFTISRDNSKNTVYLQMNSLRAEDTAVYYCAPYDIYGYPTLWGQGTLVTVSS VL: DIQMTQSPSSLSASVGDRVTITCQASQSIGAYLSWYQQKPGKAPKLLIYEASTLASGVPSRFSGSGSGTDFTLTISSLQPEDFATYYCLGAYGRSSDDGTAFGCGTKVTVLG | binds
humanized scFv Pro1571 (scFv, V domains shown, A single-chain Fv) VH: EVQLVESGGGLVQPGGSLRLSCAASGFSLSSHAMSWVRQAPGKGLEWIGTISTIDTTYYASWAKGRFTISRDNSKNTVYLQMNSLRAEDTAVYYCARLSELYTTNSYYSRWGQGTLVTVSS VL: DIQMTQSPSSLSASVGDRVTITCQASESIGSLLAWYQQKPGKAPKLLIYRASTLESGVPSRFSGSGSGTDFTLTISSLQPEDFATYYCQSYHYSSSSSYAAFGTGTKVTVLG | binds
humanized scFv Pro1586 (scFv, V domains shown, A single-chain Fv) VH: EVQLVESGGGLVQPGGSLRLSCAASGIDLSYYAMNWVRQAPGKGLEWIGMIVGGGITFYANWAKGRFTISRDNSKNTVYLQMNSLRAEDTAVYYCAVGSDGGISDFNIWGQGTLVTVSS VL: DIQMTQSPSSLSASVGDRVTITCQASQSISSYLAWYQQKPGKAPKLLIYRASTLASGVPSRFSGSGSGTDFTLTISSLQPEDFATYYCQQAYSLSNVDNFFGTGTKVTVLG | binds
humanized scFv Pro1570 (scFv, V domains shown, A single-chain Fv) VH: EVQLVESGGGLVQPGGSLRLSCAASGFSLSSYAMIWVRQAPGKGLEWIGFIDTDGHTEYANWAKGRFTISRDNSKNTVYLQMNSLRAEDTAVYYCARDGDHDYWGFNLWGQGTLVTVSS VL: DIQMTQSPSSLSASVGDRVTITCQASQNIYRNLVWYQQKPGKAPKLLIYGASELESGVPSRFSGSGSGTDFTLTISSLQPEDFATYYCLSTYYISSSDNSFGTGTKVTVLG | binds
humanized scFv Pro1707 (scFv, V domains shown, A single-chain Fv) VH: ESQLVESGGGLVQPGGSLRLSCAVSGIDLSSYAVGWVRQAPGKGLEWIGIIGRSGSIYYASWAKGRFTISKDNSKNTVYLQMNSLRAEDTAVYYCARDVDSRPPTGSLWGQGTLVTVSS VL: DVQMTQSPSSLSASVGDRVTITCQASQNTYSNLDWYQQKPGKAPKLLIYQASKLASGVPSRFSGSGSGTDFTLTISSLQPEDFATYYCQSTSWGSSYVGGFGTGTKVTVLG | binds
humanized scFv Pro1588 (scFv, V domains shown, A single-chain Fv) VH: EVQLVESGGGLVQPGGSLRLSCAASGFSLTIYTITWVRQAPGKGLEWIGTINSYGNTYYSTWAKGRFTISRDNSKNTVYLQMNSLRAEDTAVYYCARGYVDSDWYLNIWGQGTLVTVSS VL: DIQMTQSPSSLSASVGDRVTITCQSSESVYDNNYLSWYQQKPGKAPKLLIYDASRLASGVPSRFSGSGSGTDFTLTISSLQPEDFATYYCLGGYDSSGWYAAFGTGTKVTVLG | binds
humanized scFv Pro1751 (scFv, V domains shown, A single-chain Fv) VH: EVQLVESGGGLVQPGGSLRLSCAASGIDFSSYYDMCWVRQAPGKCLEWIGCIYTGSVGELYYASWAKGRFTISRDNSKNTVYLQMNSLRAEDTAVYYCARRGSGVDDYYFNLWGQGTLVTVSS VL: DIQMTQSPSSLSASVGDRVTITCQSSQSVDNNNWLAWYQQKPGKAPKLLIYDASTLASGVPSRFSGSGSGTDFTLTISSLQPEDFATYYCQGTYYTTDWWNSFGCGTKVTVLG | binds
humanized scFv Pro1565 (scFv, V domains shown, A single-chain Fv) VH: EVQLVESGGGLVQPGGSLRLSCAASGFSLSSHAMAWVRQAPGKGLEWIGYIWSGGITEYPSWAKGRFTISRDNSKNTVYLQMNSLRAEDTAVYYCARDVHIYGDIYAFDLWGQGTLVTVSS VL: DIQMTQSPSSLSASVGDRVTITCQASQDIESYLNWYQQKPGKAPKLLIYYASTLASGVPSRFSGSGSGTDFTLTISSLQPEDFATYYCQQSYSNSDVDKNVFGTGTKVTVLG | binds
